Test results as given in patent publication US11739132B2, “Separation moieties and methods of use thereof” (Werewolf Therapeutics, Inc., priority 2019, dated 2023).
Blank lines part the entries; values can stand above or below the sequence they belong to. No end group written: not given here.

Legend:
[1] = system: conditioned media from tumor, myofibroblast and YAMC cell lines; experiment: FRET steady-state kinetics of conditioned media (enzyme equivalents); assay type: biochemical, mouse; conditions: for Secreted activity in conditioned media, steady-state kinetics: tumor cell lines
Text: (§1) Conditioned media and cell lysate samples were received from Charles River Laboratories for the murine colon cancer cell lines: MC38 (epithelial), CT26 (fibroblast), and CT26 transduced with a lentivirus for doxycyclin-inducible expression of MMP9 (CT26 pLVX MMP9-5T4+dox). An immortalized mouse intestinal myofibroblast cell line (ABM Good #T0565) was used as a control stromal cell line, grown under manufacturer recommended conditions. Conditioned media and cell lysate samples were also received for screening purposes from ABM Good for the immortalized mouse colonic epithelial cell line YAMC (ABM Good #T0567).
(§2) In the end-point screening assays, a fixed titer of 10× concentrated sample and a substrate concentration of 10 μM was used. Values reported in the end-point experiments are initial velocity measurements, in relative fluorescence units (RFU) per second. End-point measurements are a starting point for a screen, but the rate of the reaction is non-linearly related to substrate concentration. Therefore, a more accurate representation of activity would be given by steady-state kinetic measurements covering a range of substrate concentrations. To compare activity across cell lines, the data were treated with a Michaelis-Menten model, and the concentration of equivalent enzyme units [E0] was solved.
Accordingly, initial velocity was measured as a function of substrate concentration, using a 2-fold dilution series from 250 to 1 μM. Data were fitted using non-linear least squares fitting with GraphPad Prism software v 8.0 to the Michaelis-Menten equation:
[formula] where kcat is the rate of product formation under steady-state conditions in units (s^−1), and KM is the Michaelis constant that gives the substrate concentration in molar units (M) at which half maximum velocity of the reaction is produced for a given enzyme, [E0] is the enzyme concentration, and [S] the substrate concentration in (M).
In the assays where purified recombinant enzyme is used, the Michaelis-Menten parameters are as classically defined above. For conditioned media samples, the effective titer of conditioned media per assay was adjusted to approximately a 2× concentrate of the original unprocessed media samples to assure that the detection range matched the signal produced. The enzyme component in the calculation is redefined as a mixture of possible proteases that contribute to the cumulative observed activity, each with intrinsic reactivity toward a substrate. In this case, it is more appropriate to consider kcat and KM as macroscopic constants that represent the overall efficiency of catalysis, and E0 is an enzyme equivalent, expressed in units of concentration. To solve the data fit, kcat/KM can be fixed at that of the recombinant enzyme and enzyme equivalents per cell culture volume can be output. The effective titer of enzyme equivalents in this case can be used to compare the activity produced by the different cell lines.
An immortalized mouse colonic epithelial cell line (YAMC) was used to test activity in the presence of additional control “normal” epithelial cells. YAMC's are given the calculated enzyme equivalents (nM) resulting from all of these steady state experiments, to allow for comparison of the amount of equivalent activity per sample. For example, the YAMC control epithelial cell line produced activity with the ADAM17_2 substrate equivalent to that of 0.52±0.03 nM of ADAM17 recombinant enzyme. This cell line compares directly to MC38, also of epithelial origin, which had activity equivalent to that of 0.32±0.03 nM of ADAM17 recombinant enzyme. […] This cell line required non-standard cell culture conditions, including growth with murine IFNγ, and at low temperature to maintain, and may not be fully representative of epithelial cell lines.

[2] = system: conditioned media from MC38, CT26, CT26 pLVX MMP9-5T4+dox and myofibroblast cell lines; experiment: FRET end-point screen of conditioned media; assay type: biochemical, mouse; conditions: for Ratio of tumor vs control activity, end-point screen: three tumor cell lines vs myofibroblast cell line, complete (+FBS) media, 10 μM substrate
Text: Proteolytic activity was screened in the conditioned media samples by fluorescent resonance energy transfer (FRET) assays with the substrates listed in Table 10.
as §1
Conditioned media samples were prepared according to the standard protocol using logarithmic phase cells. Briefly, cells were grown for 16h in either serum-free media or in complete media containing 10% fetal bovine serum (FBS). After conditioned media collection, the adherent cells were washed then lysed on plate with non-denaturing lysis buffer to produce a lysed “cell pellet” to capture any activity that remained associated with the cells. All cell culture-derived conditioned media samples, cell lysates from Charles River Laboratories, and cell lysates derived internally were processed with identical methods, to allow comparison between samples.
The resulting conditioned media was buffer exchanged with PBS and concentrated to 10× the original titer as a stock solution.
FBS background controls were therefore used for baseline subtraction at each concentration of substrate throughout the FRET experiments.
as §2

Thrombin = target: T1, Thrombin (Homo sapiens, UniProt P00734); experiment: 30-mer library counter-screening MSP-MS, Thrombin; assay type: biochemical
T1 construct: purchased R&D Systems (Bio-techne) 2196-SE-200
Procedure: (§3) Protease specificity screening was performed using Multiplexed Substrate Profiling by Mass Spectrometry (MSP-MS), the method described in, e.g. O'Donoghue A. J. et al., Nat Methods., 2012; 9(11): 1095-1100. This method employs a physico-chemically diverse peptide library as substrates for proteases, and reactions are monitored over time with mass spectrometric detection of cleaved products. The resulting cleavages are assessed for specific cleavage in the enzyme-treated sample by comparison with results from a no-enzyme control incubation.
(§4) Enzymes were activated and assayed following the manufacturer's recommendations.
Thrombin was activated following the manufacturer's recommended conditions by pre-incubation with the enzyme with thermolysin for 15 min, and then the thermolysin was quenched with 1,10 phenanthroline treatment. Activated thrombin was assayed at 1.2 nM in activation buffer: 50 mM TRIS HCl, 10 mM CaCl2, 150 mM NaCl, 0.05% (w/v) Brij-35, pH 7.5.
(§5) Counter-screening was performed against the enzymes Thrombin, Factor Xa and Hepsin using this library as well, and for calibration of activity, a positive-control peptide bearing favorable motifs for these enzymes was also designed (ALU30-19).
(§6) Catalytic efficiency (kcat/KM) estimations were used to rank the top cleaved substrates in the MSP-MS reaction. Peptides were quantified by mass spectrometric label-free quantitation from the MS1 precursor ion peak areas for each peptide. Enzyme progress curves were modeled from six-time point measurements in GraphPad Prism. Data were fitted using non-linear least squares fitting to the first order kinetics equation:
(§7) [formula] where Y=percent product formation or substrate consumption, and t=time. The observed rate is a function of the enzyme concentration [E0], and an observed catalytic efficiency (kcat/KM) in units M^−1s^−1
(§8) Counter-screening with Thrombin, Factor Xa and Hepsin was also performed following the same analysis. The library peptide Alu30-19 was designed to include authentic sites for each enzyme, for comparison of overall cleavage efficiency as well as cleavage site specificity within each motif. The substrate designed for Factor Xa has the motif FNPR|TFGS (SEQ ID NO: 248), derived from the Factor Xa cleavage site in Thrombin. The substrate motif for Thrombin was FPR|, a common tool substrate motif. The substrate motif for hepsin was RKRR|GSRG (SEQ ID NO: 249) from filaggrin.

Hepsin = target: T2, Hepsin (Homo sapiens, UniProt P05981); experiment: 30-mer library counter-screening MSP-MS, Hepsin; assay type: biochemical; conditions: for Apparent catalytic efficiency, hepsin: order of magnitude
T2 construct: purchased R&D Systems (Bio-techne) 4776-SE
T2 sequence (P05981 163-417 limits assumed): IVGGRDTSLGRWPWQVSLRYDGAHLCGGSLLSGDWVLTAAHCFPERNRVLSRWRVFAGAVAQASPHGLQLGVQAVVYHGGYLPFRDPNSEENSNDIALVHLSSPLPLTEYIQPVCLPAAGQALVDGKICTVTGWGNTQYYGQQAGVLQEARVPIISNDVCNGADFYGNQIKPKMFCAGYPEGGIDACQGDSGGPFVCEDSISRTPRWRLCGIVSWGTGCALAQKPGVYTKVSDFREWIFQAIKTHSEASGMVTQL
T2 sequence (P05981 1-162 partner limits assumed): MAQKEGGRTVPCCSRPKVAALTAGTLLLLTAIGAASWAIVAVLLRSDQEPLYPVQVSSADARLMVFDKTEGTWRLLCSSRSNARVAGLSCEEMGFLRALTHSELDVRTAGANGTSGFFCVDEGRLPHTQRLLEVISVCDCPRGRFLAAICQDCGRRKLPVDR
Procedure: as §3, §4
Hepsin was pre-activated overnight at 37° C. in the manufacturer recommended buffer: 100 mM TRIS, 10 mM CaCl2, 150 mM NaCl, 0.05% Brij-35, pH 8.0. Activity was measured with 2.4 or 24 nM enzyme in the buffer: 50 mM TRIS HCl at pH 7.4.
as §5, §6, §7, §8

FAPα = target: T3, FAPα (Homo sapiens, UniProt Q12884); experiment: 30-mer tandem linker library MSP-MS, FAPα; assay type: biochemical
T3 construct: purchased R&D Systems (Bio-techne) 930-ADB-010
T3 sequence (Q12884 1-760): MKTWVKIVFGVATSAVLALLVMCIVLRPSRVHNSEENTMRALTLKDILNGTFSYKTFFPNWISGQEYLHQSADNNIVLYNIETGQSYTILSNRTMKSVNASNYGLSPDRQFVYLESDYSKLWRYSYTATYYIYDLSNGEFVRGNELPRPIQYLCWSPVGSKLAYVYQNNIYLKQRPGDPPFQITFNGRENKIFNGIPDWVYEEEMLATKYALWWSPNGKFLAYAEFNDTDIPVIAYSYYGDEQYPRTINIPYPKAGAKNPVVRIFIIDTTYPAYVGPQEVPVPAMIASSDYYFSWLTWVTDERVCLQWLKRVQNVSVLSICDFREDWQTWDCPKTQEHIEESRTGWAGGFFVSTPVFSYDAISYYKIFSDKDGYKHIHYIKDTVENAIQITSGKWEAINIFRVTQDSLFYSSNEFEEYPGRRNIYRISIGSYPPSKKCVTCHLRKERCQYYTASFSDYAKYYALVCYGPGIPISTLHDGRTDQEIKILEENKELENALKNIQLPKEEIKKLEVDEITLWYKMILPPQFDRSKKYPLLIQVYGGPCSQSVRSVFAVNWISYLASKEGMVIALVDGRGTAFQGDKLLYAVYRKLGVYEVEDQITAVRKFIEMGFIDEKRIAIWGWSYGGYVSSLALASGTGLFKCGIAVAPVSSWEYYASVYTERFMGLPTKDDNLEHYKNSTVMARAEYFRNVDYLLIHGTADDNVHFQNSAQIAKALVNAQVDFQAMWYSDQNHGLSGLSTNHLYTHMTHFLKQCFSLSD
Procedure: as §3, §4
FAPα activity was tested with fluorescence detection using a generic Z-GP-AMC substrate. For FRET assays, the final enzyme concentration was 5 nM and the buffer was 50 mM TRIS HCl, 1 M NaCl, 1 mg/mL BSA, pH 7.5.
To analyze the catalytic efficiency of candidate tandem linker designs, a tailored library approach using MSP-MS was applied. For the tailored library, a set of nineteen synthetic peptides, 30 amino acids in length (30-mers), were designed to test whether sequence context affects the efficiency of cleavage. Peptides were assayed in a multiplex format together as a substrate library with individual recombinant enzymes, using MSP-MS. For quantitative comparisons, kinetic analysis was performed over a time course, and results are reported either as a catalytic efficiency kcat/KM for well-behaved first-order kinetics, or as observed rates as kobs for more complex kinetic behavior.
as §6, §7

Sequence: GPAGMKGL (also: Mca fluorophore and Dnp quencher, places not given here) [MMP9_1, FRET substrate with Mca fluorophore and Dnp quencher]
- Secreted activity in conditioned media, steady-state kinetics [1]: Secreted activity was measured
- Substrate cleavage activity in the end-point screen ([2]; conditioned media): high activity
- Ratio of tumor vs control activity, end-point screen [2]: approximately 4 fold

- Relative efficiency of 30-mer peptide cleavage by thrombin (Thrombin): lower cleavage activity
Sequence: KSGPGGPAGIGALFFSSPPLAQKLKSSGGR [Alu30-18]

- Apparent catalytic efficiency, hepsin (Hepsin): ~10^5 M^−1s^−1
Sequence: RGPGGPAGIGPLAQKLKSSALFKSSFPGGG [Alu30-9]

- Relative efficiency of 30-mer peptide cleavage by thrombin (Thrombin): cleaved at lower efficiency
Sequence: GGALFKSSFPGPAGLYAQPLAQKLKSSGGK [Alu30-13]

- Relative efficiency of 30-mer peptide degradation by FAPα (FAPα): not cleaved
Sequence: RGPLAQKLKSSALFKSSFPGGPAGIGGGGK [Alu30-7]

- Relative efficiency of cleavage by hepsin (Hepsin): less efficiently cleaved than ADAM17_ 2
Sequence: LAQRLRSS (also: Mca fluorophore and Dnp quencher, places not given here) [ADAM17_1, FRET substrate with Mca fluorophore and Dnp quencher]

Sequence: LAQKLKSS (also: Mca fluorophore and Dnp quencher, places not given here) [ADAM17_2, FRET substrate with Mca fluorophore and Dnp quencher]
- Calculated enzyme equivalents (ADAM17 recombinant enzyme) ([1]; MC38): 0.32 ± 0.03 nM
- Calculated enzyme equivalents (ADAM17 recombinant enzyme) ([1]; YAMC control epithelial cell line): 0.52 ± 0.03 nM
- Secreted activity in myofibroblast conditioned media, steady-state kinetics [1]: essentially undetectable
- Ratio of tumor vs control activity, end-point screen [2]: approximately 3 fold

- Relative efficiency of 30-mer peptide cleavage by thrombin (Thrombin): most rapidly cleaved in the library
Sequence: GALFKSSFPSGGGPAGLYAQGGSGKGGSGK [Alu30-1]

- Relative efficiency of 30-mer peptide degradation by FAPα (FAPα): not cleaved
- Apparent catalytic efficiency, hepsin (Hepsin): ~10^5 M^−1s^−1
Sequence: GGGALFKSSFPLAQKLKSSPGGPAGIGGGR [Alu30-8]

- Apparent catalytic efficiency, hepsin (Hepsin): ~10^5 M^−1s^−1
Sequence: RGGALFKSSFPLAQKLKSSGPAGLYAQGGK [Alu30-14]

- Relative efficiency of 30-mer peptide degradation by FAPα (FAPα): highest cleavage activity
- Relative efficiency of 30-mer peptide cleavage by thrombin (Thrombin): most rapidly cleaved in the library
Sequence: KGGGPAGLYAQGPAGLYAQGPAGLYAQGSR [Alu30-3]

- Apparent catalytic efficiency, hepsin (Hepsin): ~10^5 M^−1s^−1
- Relative efficiency of 30-mer peptide cleavage by thrombin (Thrombin): cleaved at lower efficiency
Sequence: GGPLAQKLKSSALFKSSFPGPAGLYAQGGR [Alu30-12]

- Cleavage of motif by FAPα (FAPα; at PGGP|AGIG and GP|AGLYAQ respectively): able to cleave
Sequence: GPAGLYAQ (also: Mca fluorophore and Dnp quencher, places not given here) [MMP14_1, FRET substrate with Mca fluorophore and Dnp quencher]
- Secreted activity in myofibroblast conditioned media, steady-state kinetics [1]: not in the myofibroblast cell line
- Secreted activity in conditioned media, steady-state kinetics [1]: significant measurable activity
- Substrate cleavage activity in the end-point screen ([2]; conditioned media): high activity
- Substrate cleavage activity, control myofibroblast cell line ([2]; end-point screen, conditioned media): lowest activity
- Ratio of tumor vs control activity, end-point screen [2]: approximately 57 fold

- Relative efficiency of 30-mer peptide degradation by FAPα (FAPα): highest cleavage activity
- Relative efficiency of 30-mer peptide cleavage by thrombin (Thrombin): efficient substrate
Sequence: RGGPAGLYAQGGPAGLYAQGGGPAGLYAQK [Alu30-4]
